Numbering of substitutions follows the chain as printed.
B1: TopBP1-BRCT0-5-WT: recombinant TopBP1 amino acids 1–766, strep-tagged (protein)
chain: MSRNDKEPFFVKFLKSSDNSKCFFKALESIKEFQSEEYLQIITEEEALKIKENDRSLYICDPFSGVVFDHLKKLGCRIVGPQVVIFCMHHQRCVPRAEHPVYNMVMSDVTISCTSLEKEKREEVHKYVQMMGGRVYRDLNVSVTHLIAGEVGSKKYLVAANLKKPILLPSWIKTLWEKSQEKKITRYTDINMEDFKCPIFLGCIICVTGLCGLDRKEVQQLTVKHGGQYMGQLKMNECTHLIVQEPKGQKYECAKRWNVHCVTTQWFFDSIEKGFCQDESIYKTEPRPEAKTMPNSSTPTSQINTIDSRTLSDVSNISNINASCVSESICNSLNSKLEPTLENLENLDVSAFQAPEDLLDGCRIYLCGFSGRKLDKLRRLINSGGGVRFNQLNEDVTHVIVGDYDDELKQFWNKSAHRPHVVGAKWLLECFSKGYMLSEEPYIHANYQPVEIPVSHKPESKAALLKKKNSSFSKKDFAPSEKHEQADEDLLSQYENGSSTVVEAKTSEARPFNDSTHAEPLNDSTHISLQEENQSSVSHCVPDVSTITEEGLFSQKSFLVLGFSNENESNIANIIKENAGKIMSLLSRTVADYAVVPLLGCEVEATVGEVVTNTWLVTCIDYQTLFDPKSNPLFTPVPVMTGMTPLEDCVISFSQCAGAEKESLTFLANLLGASVQEYFVRKSNAKKGMFASTHLILKERGGSKYEAAKKWNLPAVTIAWLLETARTGKRADESHFLIENSTKEERSLETEITNGINLNSDTAEHP
modifications: left off: Strep, C-terminal, kept
notes: recombinant TopBP1 amino acids 1–766, strep-tagged
B2: TopBP1-B4mut: Val590, Thr606 and Val610 mutated to glutamate, arginine and glutamate (protein)
chain: B1 chain with V590E, T606R, V610E
modifications: left off: Strep, C-terminal, kept
B3: TopBP1-Gpp: TopBP1-BRCT0-5, central leucine-leucine motif mutated to two consecutive prolines (protein)
chain: B1 chain with L490P, L491P
modifications: left off: Strep, C-terminal, kept
notes: TopBP1-BRCT0-5, central leucine-leucine motif mutated to two consecutive prolines

Tests used:
[1] = system: DNA replication in Xenopus egg extracts; assay: Replication assay in TopBP1-immunodepleted Xenopus egg extract (α-32P-dCTP incorporation); assay type: biochemical, Xenopus laevis; conditions: for ability to support replication (words): 6 ng/µl recombinant TopBP1 added to TopBP1-immunodepleted extract, 23 °C
Description: Fig. 5 Both GINS binding surfaces in TopBP1 cooperate in supporting genome replication. a Immobilized recombinant Flag-GINS or Flag peptide-coupled beads were used to pulldown the indicated recombinant TopBP1-BRCT0-5-strep versions (Figs. 1a and 3a) using 100 mM NaAc in the binding buffer. The pulldown was analysed by immunoblotting. […] Estimations were done for the binding interfaces involving TopBP1-GINI (blue) and TopBP1-BRCT4 (red), both together and alone. c Coomassie-stained SDS PAGE gel of the indicated recombinant TopBP1-BRCT0-5 proteins (Figs. 1a(ii) and 3a). d The indicated relative amounts (100%–10%) of immunodepleted and non-depleted Xenopus egg extracts (Xtract) were analysed by immunoblotting using anti-TopBP1 #2 and other indicated antibodies. TopBP1 antibodies #1 and #2, or unspecific IgG (mock) were used for immunodepletions. Ponc, ponceau staining. Error bars, SEM, n = 3. The experiments were done more than three times (i) or twice (ii) with similar results. e, f Replication analyses (radioactive nucleotide incorporation) using Xenopus egg extracts immunodepleted with antibodies anti-TopBP1#1, #2 or unspecific IgG (mock). Buffer (buf), recombinant wild-type (WT) or mutant TopBP1-BRCT0-5-strep (c) were added. Diamonds, Individual data points of n = 3 independent experiments, Error bars, SEM. Source data are provided as a Source data file.
Xenopus laevis egg extracts were prepared from metaphase II arrested eggs as described in ref. [79]. After washing with MMR (100 mM NaCl, 2 mM KCl, 1 mM MgCl2, 2 mM CaCl2, 0.1 mM EDTA, 5 mM HEPES–NaOH, pH 7.8) eggs were dejellied (2% cysteine w:v in H2O, pH 7.8 with NaOH). Eggs were rinsed in XBE2 (100 mM KCl, 2 mM MgCl2, 0.1 mM CaCl2, 1.71% w:v sucrose, 5 mM K-EGTA, 10 mM HEPES–KOH, pH 7.7). Then, the eggs were transferred into centrifuge tubes containing 1 ml XBE2 + 10 µg/ml protease inhibitor (aprotinin Sigma A6279, leupeptin Merck 108975, pepstatin Carl Roth 2936.1) + 100 µg/ml cytochalasin D (Sigma C8273). For packing, eggs were centrifuged for 1 min at 1400 × g at 16 °C in a swingout rotor. Excess buffer, activated and apoptotic eggs were removed before crushing the eggs at 16,000 × g for 10 min at 16 °C. The extract was collected with a 20 G needle and supplemented with 10 µg/ml cytochalasin D, 10 µg/ml protease inhibitors, 1:80 dilution of energy regenerator (1M phosphocreatine K salt, 600 µg/ml creatine phosphokinase in 10 mM HEPES–KOH pH 7.6) and LFB1/50 (10% w-v sucrose, 50 mM KCl, 2 mM MgCl2, 1 mM EGTA, 2 mM DTT, 20 mM K2HPO4/KH2PO4 pH 8.0, 40 mM HEPES–KOH, pH 8.0) to 15% (v:v). The extract was cleared at 84,000 × g at 4 °C for 20 min in a swingout rotor. The cytoplasmatic layer was collected and supplemented with 2% glycerol v:v. […]

[2] = system: 53BP1; assay: Pulldown of endogenous 53BP1 from 293T cell lysates with recombinant TopBP1; assay type: binding; conditions: pulldown from 293T cell lysates, immunoblotting; 2 h, 4 °C
Description: For pulldown assays from soluble lysates of non-transfected 293T cells, 5 µl streptactin Sepharose HP (Cytiva, 28935599) beads were coupled with 10 µg recombinant TopBP1-1-766-strep-WT or mutants in coupling buffer (20 mM HEPES pH 8.0, 150 mM NaCl, 0.1% (v/v) Tween-20, 0.5 mM TCEP, 2% (v/v) glycerol) for 45 min at 4 °C before washing two times with coupling buffer and then once in cell lysis buffer (20 mM HEPES pH 8.0, 150 mM NaCl, 0.1% (v/v) Tween-20, 0.5 mM TCEP, 2% (v/v) glycerol, protease inhibitor cocktail (Roche Complete protease inhibitor cocktail, 05056489001). Control pulldowns were done with Flag-peptide-coupled beads or, when indicated, using GINS-coupled beads and the non-GINS binding TopBP1-Gcc-B4mut. 293T cells were lysed in ten times pellet volume of cell lysis buffer, and centrifuged at 20,000 × g for 15 min at 4 °C. Soluble lysate from cells equivalent to 50% of a 15 cm tissue culture plate was added to the TopBP1-coupled beads and incubated for 2 h at 4 °C rotating. Beads were washed three times with 5 min incubation in lysis buffer and boiled in 50 µl Laemmli buffer before SDS PAGE.
Supplementary Fig. 6: Experiments to control quality of recombinant protein mutants. a: Recombinant TopBP1 point mutants of the GINI and BRCT4 regions bind 53BP1 phospho-dependently. […] Lysates and pulldowns were analysed by immunoblofng. […]

| Molecule | ability to support replication (words) [1] | ability to support replication (words) ([1]; listed as B4mut) | binding to (phospho-)53BP1 [2] | reduction in nucleotide incorporation ([1]; 120 min time point, TopBP1-immunodepleted Xenopus egg extract, 6 ng/µl protein) [%] |
| --- | --- | --- | --- | --- |
| B1 | effectively rescued replication in depleted extracts | – | – | – |
| B2 | not detectably compromised in their abilities to support replication | do not aﬀect grossly the replica+on-inducing | could still interact with phospho-53BP1 | – |
| B3 | – | – | no effect on binding to 53BP1 | 55 |
